Source: patent US20230049752A1 (University of California, published 2023)
Each block holds one binder with its values, some of them ahead of it.

Tests used:
[1] = target: human Claudin-6 (CLDN6) (human) (UniProt P56747); assay: KinExA, HEK293T CLDN6-mGFP A11 cells detached by Versene, equilibrium curves 500pM, 10nM; printed 95% CI 3.41nM - 14.99nM
[2] = target: human Claudin-6 (CLDN6) (human) (UniProt P56747); assay: flow cytometry, UMUC4 cells (positive cell line); 2nd Ab only 1,114.73
[3] = target: human Claudin-6 (CLDN6) (human) (UniProt P56747); assay: KinExA, HEK293T CLDN6-mGFP A11 cells detached by Versene, equilibrium curves 500pM, 10nM; printed 95% CI 0.56nM - 1.66nM
[4] = target: human Claudin-6 (CLDN6) (human) (UniProt P56747); assay: KinExA, HEK293T CLDN6-mGFP A11 cells detached by Versene, equilibrium curves 500pM, 10nM; printed 95% CI 1.49nM - 17.05nM
[5] = target: human Claudin-6 (CLDN6) (human) (UniProt P56747); assay: KinExA, HEK293T CLDN6-mGFP A11 cells detached by Versene, equilibrium curves 500pM, 10nM; printed 95% CI 1.05nM - 3.38nM
[6] = target: human Claudin-6 (CLDN6) (human) (UniProt P56747); assay: flow cytometry, HEK293T CLDN6-mGFP A11 cells (positive artificial OE cell line); 2nd Ab only 1,242.89
[7] = target: human Claudin-6 (CLDN6) (human) (UniProt P56747); assay: KinExA, HEK293T CLDN6-mGFP A11 cells detached by Versene, equilibrium curves 500pM, 10nM; printed 95% CI 1.46nM - 6.47nM
[8] = target: human Claudin-6 (CLDN6) (human) (UniProt P56747); assay: KinExA, HEK293T CLDN6-mGFP A11 cells detached by Versene, equilibrium curves 500pM, 10nM; printed 95% CI 1.07nM - 7.74nM
[9] = target: human Claudin-6 (CLDN6) (human) (UniProt P56747); assay: KinExA, HEK293T CLDN6-mGFP A11 cells detached by Versene, equilibrium curves 500pM, 10nM; printed 95% CI 2.10nM - 5.42nM
mouse Claudin-6 (CLDN6) = target: T1, mouse Claudin-6 (CLDN6) (mouse, UniProt Q9Z262 1-219); assay: FACS, 293T clone expressing mouse CLDN6, dose not stated (2nd Ab only 1061.72)
T1 construct: whole, on cells; GFP fusion on engineered HEK293T cells; also called Mouse CLDN6; murine CLDN6
T1 sequence (looked up): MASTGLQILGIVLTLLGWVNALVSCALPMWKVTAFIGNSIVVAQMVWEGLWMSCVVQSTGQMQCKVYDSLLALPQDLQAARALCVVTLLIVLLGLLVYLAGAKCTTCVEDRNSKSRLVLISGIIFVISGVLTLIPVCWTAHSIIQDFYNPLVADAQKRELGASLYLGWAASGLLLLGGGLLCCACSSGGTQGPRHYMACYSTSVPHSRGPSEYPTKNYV
Method: Two doses (1.5 μg or 0.3 μg) of the humanized antibodies were tested for binding to either human CLDN6 or murine CLDN6 which proteins were expressed by engineered 293T clones.

[10] = target: human Claudin-6 (CLDN6) (human) (UniProt P56747); assay: FACS, 0.3 ug Ab, 293T clone expressing human CLDN6 (2nd Ab only 768.07)
[11] = target: human Claudin-6 (CLDN6) (human) (UniProt P56747); assay: FACS, limiting dilution, ARK2 cells
[12] = target: human Claudin-6 (CLDN6) (human) (UniProt P56747); assay: FACS, limiting dilution, UMUC4 cells
[13] = target: human Claudin-6 (CLDN6) (human) (UniProt P56747); assay: KinExA, HEK293T CLDN6-mGFP A11 cells detached by Versene, equilibrium curves 500pM, 10nM; printed 95% CI 0.53nM - 2.03nM
[14] = target: human Claudin-6 (CLDN6) (human) (UniProt P56747); assay: FACS, 1.5 ug Ab, ARK2 cells (2nd Ab only 1351.21)
[15] = target: human Claudin-6 (CLDN6) (human) (UniProt P56747); assay: FACS, 1.5 ug Ab, 293T clone expressing human CLDN6 (2nd Ab only 768.07)
[16] = target: human Claudin-6 (CLDN6) (human) (UniProt P56747); assay: FACS, limiting dilution, OV90 cells
[17] = target: human Claudin-6 (CLDN6) (human) (UniProt P56747); assay: FACS, 0.3 ug Ab, ARK2 cells (2nd Ab only 1351.21)

Kd [1]: 6.68 nM | flow cytometry signal at 1µg Ab/Sample [2]: 28800
B1: CLDN6 ADC: AB3-7 conjugated to MC-VC-PAB-MMAE (conventional) (antibody, V domains shown)
VH: EVQLLESGGGLVQPGGSMRLSCAASGFTFSNYWMNWVRQAPGKGLEWVAQIRLKSDNYATHYADSVKGRFTISRDDSKNTVYLQMNSLRAEDTGVYYCNDGPPSGSWGQGTLLTVSS
VL: DIQMTQSPSSLSASVGDRVTITCRISENIYSYLAWYQQKPGKAPKLLVYNAKILVEGVPSRFSGSGSGTDFTLTISSLQPEDFGTYYCQHHYTVPWTFGQGTKLEIK
modifications: antibody conjugated to MC-VC-PAB-MMAE, heterogeneous drug load; attachment residues not stated

Kd [3]: 1.01 nM | flow cytometry signal at 0.1µg Ab/Sample [2]: 8790 | flow cytometry signal at 1µg Ab/Sample [2]: 31600
B2: CLDN6 ADC: AB3-7 conjugated to MC-GGFG-MMAE (D4 technology) (antibody, V domains shown)
VH: EVQLLESGGGLVQPGGSMRLSCAASGFTFSNYWMNWVRQAPGKGLEWVAQIRLKSDNYATHYADSVKGRFTISRDDSKNTVYLQMNSLRAEDTGVYYCNDGPPSGSWGQGTLLTVSS
VL: DIQMTQSPSSLSASVGDRVTITCRISENIYSYLAWYQQKPGKAPKLLVYNAKILVEGVPSRFSGSGSGTDFTLTISSLQPEDFGTYYCQHHYTVPWTFGQGTKLEIK
modifications: antibody conjugated to MC-GGFG-MMAE, mostly 4 drugs per antibody; attachment residues not stated

Kd [4]: 5.34 nM | flow cytometry signal at 0.1µg Ab/Sample [2]: 9450 | flow cytometry signal at 1µg Ab/Sample [2]: 26900
B3: CLDN6 ADC: AB3-7 conjugated to MC-VC-PAB-MMAE (D4 technology) (antibody, V domains shown)
VH: EVQLLESGGGLVQPGGSMRLSCAASGFTFSNYWMNWVRQAPGKGLEWVAQIRLKSDNYATHYADSVKGRFTISRDDSKNTVYLQMNSLRAEDTGVYYCNDGPPSGSWGQGTLLTVSS
VL: DIQMTQSPSSLSASVGDRVTITCRISENIYSYLAWYQQKPGKAPKLLVYNAKILVEGVPSRFSGSGSGTDFTLTISSLQPEDFGTYYCQHHYTVPWTFGQGTKLEIK
modifications: antibody conjugated to MC-VC-PAB-MMAE, mostly 4 drugs per antibody; attachment residues not stated

Kd [5]: 1.91 nM | flow cytometry signal at 0.1µg Ab/Sample [2]: 9990 | flow cytometry signal at 1µg Ab/Sample [2]: 33800
B4: CLDN6 ADC: AB3-7 conjugated to CL2A-SN38 (conventional) (antibody, V domains shown)
VH: EVQLLESGGGLVQPGGSMRLSCAASGFTFSNYWMNWVRQAPGKGLEWVAQIRLKSDNYATHYADSVKGRFTISRDDSKNTVYLQMNSLRAEDTGVYYCNDGPPSGSWGQGTLLTVSS
VL: DIQMTQSPSSLSASVGDRVTITCRISENIYSYLAWYQQKPGKAPKLLVYNAKILVEGVPSRFSGSGSGTDFTLTISSLQPEDFGTYYCQHHYTVPWTFGQGTKLEIK
modifications: antibody conjugated to CL2A-SN38, heterogeneous drug load; attachment residues not stated

flow cytometry signal at 0.1µg Ab/Sample [6]: 121000 | Kd [7]: 3.01 nM | flow cytometry signal at 0.1µg Ab/Sample [2]: 10500 | flow cytometry signal at 1µg Ab/Sample [2]: 32800
B5: CLDN6 ADC: AB3-7 conjugated to MC-GGFG-DXD (antibody, V domains shown)
VH: EVQLLESGGGLVQPGGSMRLSCAASGFTFSNYWMNWVRQAPGKGLEWVAQIRLKSDNYATHYADSVKGRFTISRDDSKNTVYLQMNSLRAEDTGVYYCNDGPPSGSWGQGTLLTVSS
VL: DIQMTQSPSSLSASVGDRVTITCRISENIYSYLAWYQQKPGKAPKLLVYNAKILVEGVPSRFSGSGSGTDFTLTISSLQPEDFGTYYCQHHYTVPWTFGQGTKLEIK
modifications: antibody conjugated to MC-GGFG-DXD; attachment residues not stated

Kd [8]: 2.87 nM | flow cytometry signal at 0.1µg Ab/Sample [2]: 9140 | flow cytometry signal at 1µg Ab/Sample [2]: 34600
B6: CLDN6 ADC: AB3-7 conjugated to CL2A-SN38 (D4 technology) (antibody, V domains shown)
VH: EVQLLESGGGLVQPGGSMRLSCAASGFTFSNYWMNWVRQAPGKGLEWVAQIRLKSDNYATHYADSVKGRFTISRDDSKNTVYLQMNSLRAEDTGVYYCNDGPPSGSWGQGTLLTVSS
VL: DIQMTQSPSSLSASVGDRVTITCRISENIYSYLAWYQQKPGKAPKLLVYNAKILVEGVPSRFSGSGSGTDFTLTISSLQPEDFGTYYCQHHYTVPWTFGQGTKLEIK
modifications: antibody conjugated to CL2A-SN38, mostly 4 drugs per antibody; attachment residues not stated

flow cytometry signal at 0.1µg Ab/Sample [6]: 110000 | Kd [9]: 3.42 nM | flow cytometry signal at 0.1µg Ab/Sample [2]: 10800 | flow cytometry signal at 1µg Ab/Sample [2]: 32600
B7: CLDN6 ADC: AB3-7 conjugated to MC-VC-PAB-DXD (antibody, V domains shown)
VH: EVQLLESGGGLVQPGGSMRLSCAASGFTFSNYWMNWVRQAPGKGLEWVAQIRLKSDNYATHYADSVKGRFTISRDDSKNTVYLQMNSLRAEDTGVYYCNDGPPSGSWGQGTLLTVSS
VL: DIQMTQSPSSLSASVGDRVTITCRISENIYSYLAWYQQKPGKAPKLLVYNAKILVEGVPSRFSGSGSGTDFTLTISSLQPEDFGTYYCQHHYTVPWTFGQGTKLEIK
modifications: antibody conjugated to MC-VC-PAB-DXD; attachment residues not stated

FACS fluorescence (mouse Claudin-6 (CLDN6)): 56100 | flow cytometry signal at 0.1µg Ab/Sample [6]: 107000 | FACS fluorescence [10]: 106000 | FACS signal at 0.32 nM [11]: 402 | FACS signal at 1.6 nM [11]: 537 | FACS signal at 8 nM [11]: 991 | FACS signal at 40 nM [11]: 1640 | FACS signal at 200 nM [11]: 3060 | FACS signal at 1000 nM [11]: 11400 | FACS signal at 0.32 nM [12]: 604 | FACS signal at 1.6 nM [12]: 570 | FACS signal at 8 nM [12]: 724 | FACS signal at 40 nM [12]: 1120 | FACS signal at 200 nM [12]: 2110 | FACS signal at 1000 nM [12]: 9840 | Kd [13]: 1.13 nM | FACS fluorescence [14]: 90400 | FACS fluorescence [15]: 169000 | FACS signal at 0.32 nM [16]: 393 | FACS signal at 1.6 nM [16]: 567 | FACS signal at 8 nM [16]: 565 | FACS signal at 40 nM [16]: 1140 | FACS signal at 200 nM [16]: 2330 | FACS signal at 1000 nM [16]: 9390 | FACS fluorescence [17]: 36000 | flow cytometry signal at 0.1µg Ab/Sample [2]: 8820 | flow cytometry signal at 1µg Ab/Sample [2]: 27300
B8: AB3-7 (antibody, V domains shown)
VH: EVQLLESGGGLVQPGGSMRLSCAASGFTFSNYWMNWVRQAPGKGLEWVAQIRLKSDNYATHYADSVKGRFTISRDDSKNTVYLQMNSLRAEDTGVYYCNDGPPSGSWGQGTLLTVSS
VL: DIQMTQSPSSLSASVGDRVTITCRISENIYSYLAWYQQKPGKAPKLLVYNAKILVEGVPSRFSGSGSGTDFTLTISSLQPEDFGTYYCQHHYTVPWTFGQGTKLEIK
notes: humanized; also called AB23; humanized AB3-7
